According to US10400249B2, “HPPD variants and methods of use” (priority 2014, dated 2019):

B1: FLP136: PfHPPD variant P215L, E335P, G336F (protein)
chain: MADLYENPMGLMGFEFIEFASPTPGTLEPIFEIMGFTKVATHRSKNVHLYRQGEINLILNNEPNSIASYFAAEHGPSVCGMAFRVKDSQKAYNRALELGAQPIHIDTGPMELNLPAIKGIGGAPLYLIDRFGEGSSIYDIDFVYLEGVERNPVGAGLKVIDHLTHNVYRGRMVYWANFYEKLFNFREARYFDIKGEYTGLTSKAMSAPDGMIRILLNEESSKGAGQIEEFLMQFNGEGIQHVAFLTDDLVKTWDALKKIGMRFMTAPPDTYYEMLEGRLPDHGEPVDQLQARGILLDGSSVEGDKRLLLQIFSETLMGPVFFEFIQRKGDDGFGPFNFKALFESIERDQVRRGVLTAD
modifications: HPPD variant - FLP136
notes: PfHPPD variant P215L, E335P, G336F
B2: FLP202: PfHPPD variant P215L, E335P, G336F, A340E (protein)
chain: MADLYENPMGLMGFEFIEFASPTPGTLEPIFEIMGFTKVATHRSKNVHLYRQGEINLILNNEPNSIASYFAAEHGPSVCGMAFRVKDSQKAYNRALELGAQPIHIDTGPMELNLPAIKGIGGAPLYLIDRFGEGSSIYDIDFVYLEGVERNPVGAGLKVIDHLTHNVYRGRMVYWANFYEKLFNFREARYFDIKGEYTGLTSKAMSAPDGMIRILLNEESSKGAGQIEEFLMQFNGEGIQHVAFLTDDLVKTWDALKKIGMRFMTAPPDTYYEMLEGRLPDHGEPVDQLQARGILLDGSSVEGDKRLLLQIFSETLMGPVFFEFIQRKGDDGFGPFNFKELFESIERDQVRRGVLTAD
modifications: HPPD variant - FLP202
notes: PfHPPD variant P215L, E335P, G336F, A340E

Experiments:
[1] = test system: T0 soybean plants; test: greenhouse spray test of T0 soybean plants for tolerance to mesotrione; assay type: in vivo; settings: mesotrione 3X field rate, 316 grams AI per hectare, seven days after treatment
Experimental: T0 soybean plants expressing an HPPD inhibitor tolerant enzyme of the present invention, along with a gene conferring tolerance to glyphosate and a gene conferring tolerance to glufosinate or having a “plant expression cassette”, which includes only an HPPD inhibitor tolerant enzyme of the present invention, were tested for tolerance to mesotrione. Prior greenhouse trials with the transgenic plants, soy transformants were routinely analyzed for the expression and presence of the transgenes using the ELISA protein detection method (see detailed description under item D and H). Only plants recovering in the selection media and having a detectable HPPD transgene protein expression were used for the herbicide tolerance analysis. A DeVries Tracker Sprayer was calibrated prior to each spraying. The chemical formulation used for mesotrione (MST) testing was Callisto® 4 SC formulation supplemented with ammonium sulfate and methylated rape seed oil (Actirob). Spray tests were conducted using 3× the field rate (equivalent to 9 fluid ounce per acre of the same herbicide formulation that containing 40% the active ingredient (AI), mesotrione), which equals 316 grams AI per hectare. Tolerance was evaluated one week after spraying. […] A tolerance rating of “0” was assigned to plants that their shoot apexes, newly emerged trifoliates and some axillary buds were completely bleached. A rating of “1” was assigned to plants having slight tolerance, i.e., the newest plant shoot tissues had some green leaves and are not bleached completely. A rating of “2” was assigned to plants showing moderate tolerance, i.e., more than 50% of the leaf area of the top three trifoliates showing no chlorosis or bleaching damage. A rating of “3” was assigned to plants showing nearly perfect tolerance, i.e., less than 10% of the leaf area showing chlorosis or very slight bleaching.

[2] = test system: Pseudomonas fluorescens HPPD protein; test: HGD assay: HPPD activity coupled to HGA dioxygenase, pI50 and type of inhibition (time-course); assay type: biochemical; settings: for tolerance (pI50) Cmpd. 1: inhibitor Cmpd. 1; for tolerance (pI50) Cmpd. 1 / tolerance (pI50) Cmpd. 2 / tolerance (pI50) Cmpd. 3 / tolerance (pI50) Cmpd. 4 / tolerance (pI50) Cmpd. 5 / tolerance (pI50) DKN / tolerance (pI50) MST / tolerance (pI50) TBT: HGD assay; for tolerance (pI50) Cmpd. 2: inhibitor Cmpd. 2; for tolerance (pI50) Cmpd. 3: inhibitor Cmpd. 3; for tolerance (pI50) Cmpd. 4: inhibitor Cmpd. 4; for tolerance (pI50) Cmpd. 5: inhibitor Cmpd. 5; for tolerance (pI50) DKN: inhibitor diketonitrile (DKN); for tolerance (pI50) MST: inhibitor mesotrione (MST); for tolerance (pI50) TBT: inhibitor tembotrione (TBT)
Summary of the method: (§1)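 pI50 values for Pseudomonas fluorescens HPPD come from two room-temperature formats. The coupled HGD assay continuously follows maleylacetoacetate at 318 nm (pH 7.6 Tris, 600 μM HPP, FeSO4, ascorbate, catalase, inhibitor up to 100 μM) and classifies inhibition type from time-dependence. The endpoint OD assay measures unconsumed 0.5 mM HPP after 24 min via DNP hydrazone at 405 nm (pH 7.8), testing 5.0×10^−6–5.0×10^−4 M inhibitor.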

[3] = test system: Pseudomonas fluorescens HPPD protein; test: OD assay: HPPD activity and pI50 from HPP remaining after derivatisation with DNP; assay type: biochemical; settings: for Activity DeltaE/24 min μg Protein: HPPD enzyme activity of the clone; for tolerance (pI50) Cmpd. 2: inhibitor Cmpd. 2; for tolerance (pI50) DKN: inhibitor diketonitrile (DKN), negative log of molar concentration; for tolerance (pI50) MST: inhibitor mesotrione (MST); for tolerance (pI50) TBT: inhibitor tembotrione (TBT)
Summary of the method: as §1

[4] = HT-single plant expression cassette
[5] = HT-triple plant expression cassette

Molecule | Number of T0 soybean plants with herbicide tolerance rating 0 (completely bleached) [1, 4] | Number of T0 soybean plants with herbicide tolerance rating 1 (slight tolerance) [1, 4] | Number of T0 soybean plants with herbicide tolerance rating 2 (moderate tolerance) [1, 4] | Number of T0 soybean plants with herbicide tolerance rating 3 (nearly perfect tolerance) [1, 4] | Number of T0 soybean plants with herbicide tolerance rating 0 (completely bleached) [1, 5] | Number of T0 soybean plants with herbicide tolerance rating 1 (slight tolerance) [1, 5] | Number of T0 soybean plants with herbicide tolerance rating 2 (moderate tolerance) [1, 5] | Number of T0 soybean plants with herbicide tolerance rating 3 (nearly perfect tolerance) [1, 5] | mechanism of inhibition by diketonitrile (DKN), time-course of inhibition [2] | mechanism of inhibition by mesotrione (MST), time-course of inhibition [2] | mechanism of inhibition by tembotrione (TBT), time-course of inhibition [2] | tolerance (pI50) Cmpd. 1 [2] | tolerance (pI50) Cmpd. 2 [2] | tolerance (pI50) Cmpd. 3 [2] | tolerance (pI50) Cmpd. 4 [2] | tolerance (pI50) Cmpd. 5 [2] | tolerance (pI50) DKN [2] | tolerance (pI50) MST [2] | tolerance (pI50) TBT [2] | Activity DeltaE/24 min μg Protein [3] | other results
B1 | 4 | 10 | 41 | 20 | 4 | 17 | 33 | 19 | fully reversible inhibitors | fully reversible inhibitors | fully reversible inhibitors | 5.6 | 5.9 | 5.6 | 6.0 | 5.6 | 4.0 | 4.5 | 5.3 | 0.09 DeltaE/24 min μg Protein | tolerance (pI50) Cmpd. 2 [3]: 4.8; tolerance (pI50) DKN [3]: 2.6; tolerance (pI50) MST [3]: 3.3; tolerance (pI50) TBT [3]: 4.7
B2 | 2 | 21 | 37 | 18 | 7 | 8 | 10 | 14 | fully reversible inhibitors | fully reversible inhibitors | fully reversible inhibitors | 4.1 | 4.7 | 4.3 | 5.7 | 4.3 | <4 | <4 | 4.2 | 0.09 DeltaE/24 min μg Protein | tolerance (pI50) Cmpd. 2 [3]: 4.5; tolerance (pI50) DKN [3]: <2.5; tolerance (pI50) MST [3]: <2.5; tolerance (pI50) TBT [3]: 3.6
